Assays:
[1] = target: Gag.FP: unprocessed HIV-1 Gag polyprotein carrying eCFP or eYFP between MA and CA, in immature HIV^eCFP/eYFP particles (HIV-1 NL4-3); experiment: FRET or BRET; stopped-flow; dual-labeled particles mixed with 0.05% TX-100 in PBS at 25°C, excitation 436 nm, long pass filter 515 nm; five to six traces averaged; single or double exponential fits of the FRET decay
[2] = target: MA-CA.FP: uncleaved MA-CA Gag derivative carrying eCFP or eYFP, in HIV^eCFP/eYFP particles of the MA-CA cleavage site variant (HIV-1 NL4-3); experiment: as above
[3] = target: MA-SP1.FP: uncleaved MA-CA-SP1 Gag derivative carrying eCFP or eYFP, in HIV^eCFP/eYFP particles of the MA-SP1 cleavage site variant (HIV-1 NL4-3); experiment: as above
[4] = target: MA-SP1.FP: uncleaved MA-CA-SP1 Gag derivative carrying eCFP or eYFP, in HIV^eCFP/eYFP particles of the MA-SP1 cleavage site variant (HIV-1 NL4-3); experiment: FRET or BRET; cuvette-based; dual-labeled particles in PBS at 25°C, 0.05% TX-100 added at t = 0 to strip the lipid envelope; emission at 528 nm (excitation 433 nm) followed at 1 s resolution, or spectra after 15 min; normalized to the signal before detergent
[5] = target: MA.FP: HIV-1 matrix protein (MA) carrying eCFP or eYFP, in mature HIV^eCFP/eYFP particles (HIV-1 NL4-3); experiment: FRET or BRET; stopped-flow; dual-labeled particles mixed with 0.05% TX-100 in PBS at 25°C, excitation 436 nm, long pass filter 515 nm; five to six traces averaged; single or double exponential fits of the FRET decay

Gag.FP: unprocessed HIV-1 Gag polyprotein carrying eCFP or eYFP between MA and CA, in immature HIV^eCFP/eYFP particles (natural protein)
k1, rate constant of FRET decay (single exponential) [1]: 0.018 s⁻¹

MA-CA.FP: uncleaved MA-CA Gag derivative carrying eCFP or eYFP, in HIV^eCFP/eYFP particles of the MA-CA cleavage site variant (domain or fragment)
k1, rate constant of FRET decay (fast phase, double exponential) [2]: 0.127 s⁻¹
k2, rate constant of FRET decay (slow phase, double exponential) [2]: 0.0082 s⁻¹

MA-SP1.FP: uncleaved MA-CA-SP1 Gag derivative carrying eCFP or eYFP, in HIV^eCFP/eYFP particles of the MA-SP1 cleavage site variant (domain or fragment)
k1, rate constant of FRET decay (fast phase, double exponential) [3]: 0.129 s⁻¹
k2, rate constant of FRET decay (slow phase, double exponential) [3]: 0.0078 s⁻¹
plateau of the FRET signal after detergent, % of the initial value [4]: 75%

MA.FP: HIV-1 matrix protein (MA) carrying eCFP or eYFP, in mature HIV^eCFP/eYFP particles (natural protein)
k1, rate constant of FRET decay (single exponential) [5]: 0.099 s⁻¹

— PMC4051761
